Experiment: yeast display, Sf9 membrane polyspecificity reagent, FACS + sequencing; frameworks hold sequencing errors
Method in brief: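 Sorting gates, low and high (top ~1%), were placed on anti-HA fluorescence to track expression and on streptavidin fluorescence to track reagent binding. A clone's polyreactivity label is taken from the gate it came out of. The reagent was 10% biotinylated, detergent-solubilized Sf9 membrane, applied for 1 hour at 4 °C to galactose-induced yeast display cells.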

Sequence	polyreactivity (PSR sort gate)
QVQLVESGGGLVQAGGSLRLSCADSGRTFCKYVMRWYRQAPGKERELVAVISRPAGSTYYADSVKGRFTISRDNAKNTVYLQMNSLKPEDTAVYYCAKRPKNKPVLGDYDHWGQGTQVTVSS	low polyreactivity
QVQLVESGGGLVQAGGSLRLSCAASGRIWVYYTMGWYRQAPGKERELVAAITGSGGSTYYADSVTGRFTISRDNATNTVYLQMNSLKPEDTAVYYCAVYDSYRKFKYWGQGTQVTVSS	high polyreactivity
QVQLVESGGGLVQAGGSLRLSCAASGFTFTGYAMGWYRQAPGKERELVAVISETGGSTYADSVKGRFTISRDNAKNTVYLQMNSLKPEDTAVYYCNARSGYYLRYYDYDYWGQGTQVTVSS	low polyreactivity
QVQLVESGGGLVQAGGSHRLSCAASGRIFRVYVMGWYRQAPGKEREFVAAISRRGSRTYADSVKGRFTISRDNAKNTVYLLMNSLKTEDTAVYYWAAECGYQAHPGQGDYWGQGTQVTVSS	high polyreactivity
QVQLVESGGGLVQAGGSLRLSCAASGTFSQYAMGWYRQAPGKERQLVAAISQGGGSTYYADSVKGRFTISRDNAKNTVYLQMNSLKPEDTAVYYCARSRSYWGIVYGRYDYWGQGTQVTVSS	high polyreactivity
QVQLVESGGGLVQAGGSLRLSCAASGSTYRTYAMGWYRPAPGKERELVAAISSSGGSTYYADSVKGRFTISRDNAKNTVYLQMNSLKPEYTAVYYCNAGRSHRPHYDYWGQGTQVTVSS	high polyreactivity
QVQLVESGGGLVQAGGSLRLSCAASGDIYDAYAMGWYRQAPGKERELVAAISRSGGSTYYSDSVKGRFTISRDNAKNTVYLLMNSLKPEDTAVYYCATRFSRRYVRYDYWGQGTQVTVSS	high polyreactivity
QVQLPESGGGLLQAGGGLRLSCAASGSITSTGYMGWYRPAPGKEREPVAAIAAGTTTYYADSVKARFTISRDNAKNTVYLQMNCLRPEDTAVYYCAVFTDNRLAFLYWGQGTQVTVSS	low polyreactivity
QVQLVESGGGLVQAGGSLRLSCAASGSIFGLNALGWSRQAPGKERELVAGITWSGGSSTYYADSVKGRFTISRDYAKNTVYLQMNSLKPEDTAVYNCAARRVFIPYYVRFYYWGQGTQVTVSS	high polyreactivity
QVQLVESGGGLVQGGGSLRLSCAASGSTFGRYAMGWYRQAPGKEREFVAGITGRGGSTYYADSVKGRFTISRDNAKNTVYLQMNSLKPQDTAVYYCAAGYRVGYLRAGDYWGQGTQVTVSS	high polyreactivity
QVQLVESGGGLVQAGGSLRISCAASGRTFRKYAMGWYRQAPGKERELVAAISWSGGSTYYANSVKGRFTISRDNAKNTVYLQMNSLKPEDTAVYYCAAVPVHTGSLYWGFTSGYDYWGQGTQVTVSS	low polyreactivity
KVQLVESGGGLVQAGGSLRLSCAASGINCYYYAMGWYRQAPGKERELVAVISSSGGRTYYADSVKGRFTISRDNSKNTVYLQMNSLKPEDTAVYYCAARGYGATYDYWGQGTQVTVSS	high polyreactivity
QVQLVESGGGIVQAGGSLRLSCAASGSIFYGYAMGWYRQAPGNERELVAAISSGGRTKYADSVKGRFTISRDNAKNTVYLQMNSLKPEDTAVYYCNVSYLVYRWNFGWSMDYWGQGTQVTVSP	low polyreactivity
QGQLVDSGGGLVQAGGSLRLSCAASGSIVRPNAMGWYRPAPGKEREFVAAITSSSGPTYYADSVKGRFTISRDNAKNTVYLQMNSLKPEDTAVYYCAAKYTSRSYKYDYWGHGTQVTVSS	high polyreactivity
QVQLVESGGGLVQAGGSLRLSCAASGSIFASNAMGWYRQAPGKEREFVAAIYWSGTRTYYADSVKGRFTISRDNAKNTVYLQLKSLKPEDTAVYYCAALTVLRNDYWGQGTQVSVSS	low polyreactivity
QVQLVESGGGLVQAGGSLRLSCAGSGYIFAYNTIGWYRQAPGKERELVAAISRSGGSTYYPDSVKGRFTISRDNAKNTVYLQMNSLKPEDTAVYYCAARYSGYRVGQRSFCYWGQGTQVTVSS	high polyreactivity
QVQLVESGGGLVQAGGSLRLTSAGSGSTFSYYTMGWYRQAPGKERELVATIRSTGSTTYADSVKGRFTISRDNVKNTVYLQMNSLKPEDTAVYFCAARSRWGGYIHTGYDYWGQGTQVTVSS	low polyreactivity
